This is an account of results in patent publication US20200024337A1 (H LUNDBECK A S, published 2020).

Read-outs that look alike come from different tables or passages of the source.

The target of assay [1] is T1, ….
T1 construct: x-axis label of the 4th bar, upper panel; also called alpha-synuclein 20-mer 121-140
Nature of the assay: Pepscan ELISA on a synthesized peptide array (peroxidase conjugate, ABTS, CCD read-out, scale 0 to 3000) [upper panel]. On the technique in general: ELISA stands for enzyme-linked immunosorbent assay.
Procedure: (§1) The binding of antibody to each of the synthesized 20 mer peptides was tested in a Pepscan based ELISA. The linear peptide array covering the entire coding sequence of alpha-synuclein, as well as all peptides with oxidized methionines or nitrosylated tyrosines, were incubated with primary antibody solution (overnight at 4° C.). After washing, the peptide arrays were incubated with a 1/1000 dilution of an antibody peroxidase conjugate (SBA,cat.nr.2010-05) for one hour at 25° C. After washing, the peroxidase substrate 2,2′-azino-di-3-ethylbenzthiazoline sulfonate (ABTS) and 2 μl/ml of 3 percent H₂O₂ were added. After one hour, the color development was measured. The color development was quantified with a charge coupled device (CCD)—camera and an image processing system. […] The results were quantified and stored into the Peplab database. Occasionally a well contains an air-bubble resulting in a false-positive value, the cards are manually inspected and any values caused by an air-bubble are scored as 0.

The target of assay [2] is T2, ….
T2 construct: x-axis label of the 2nd bar, upper panel
The assay is described as above.
Procedure: as §1

In assay [3] the target is T3, ….
T3 construct: x-axis label of the 3rd bar, upper panel
The description is as above.
Procedure: as §1

Assay [4] has as its target T4, alpha-synuclein (human, UniProt P37840 1-140). In words: SPR (Biacore 3000), synuclein ligand format. On the technique in general: In SPR one partner is held on a chip, and binding of the other changes the refractive index at the surface.
Assay [5] concerns the target T4, alpha-synuclein. In words: SPR (Biacore 3000), IgG captured by anti-human IgG on CM5 chip, synuclein as analyte.
Assay [6] deals with T4, alpha-synuclein. Described as above. The source holds these as a separate data set.

B1: mouse 2E6 (antibody, V domains shown)
VH: QVQLQQPGAELVKPGASVKLSCTASGYTFTSYWMHWMKQRPGRGLEWIGRIDPNSGTTKYNVNFKTKATLTVDKPSSTAYMHLSSLTSEDSAVYYCARLGHYGNLYAMDYWGQGTSVT
VL: QIVLTQSPAIMSASPGEKVTMTCSASSSVSYMHWYQQKSGTSPKRWIYDTSKLASGVPTRFSGSGSGTSYSLTISSMDTEDAATYYCQQWSSNPPTFGAGTKLELK
notes: also called m2E6
Regarding B1, the binding result in assay [1], in assay [2] and in assay [3] was “binds” each time.

B2: chimeric 2E6 (antibody, V domains shown)
VH: QVQLQQPGAELVKPGASVKLSCTASGYTFTSYWMHWMKQRPGRGLEWIGRIDPNSGTTKYNVNFKTKATLTVDKPSSTAYMHLSSLTSEDSAVYYCARLGHYGNLYAMDYWGQGTSVT
VL: QIVLTQSPAIMSASPGEKVTMTCSASSSVSYMHWYQQKSGTSPKRWIYDTSKLASGVPTRFSGSGSGTSYSLTISSMDTEDAATYYCQQWSSNPPTFGAGTKLELK
notes: also called ch2E6; Ch2E6
As for B2, the KD improvement in assay [4], in assay [5] and in assay [6] was 1 fold (Ch2E6 = 1) each time.

B3: 2E6-HLD-1 (antibody, V domains shown)
VH: QVQLVQSGAEVKKPGASVKVSCKASGYTFTSYWMHWMRQAPGQGLEWIGRIDPNSGTTKYNVNFKTRATLTVDKSTSTAYMELSSLRSEDTAVYYCARLGHYGNLYAMDYWGQGTLVT
VL: EIVLTQSPATLSLSPGERATLSCSASSSVSYMHWYQQKPGQAPRRWIYDTSKLASGVPARFSGSGSGTDYTLTISSLEPEDFAVYYCQQWSSNPPTFGQGTKLEIKR
notes: Humanized 2E6; also called h2E6-HLD-1; H2E6-HLD-1
Turning to B3, the results for the KD improvement in assay [4], in assay [5] and in assay [6] were 2 fold (Ch2E6 = 1), 2.5 fold (Ch2E6 = 1) and 2.5 fold (Ch2E6 = 1), respectively.

B4: 8D9 (antibody, V domains shown)
VH: QVQLVQSGAEVKKPGASVKVSCKASGYTFTSYWMHWMRQAPGQGLEWIGRIDPNSGTTKYNVNFKTRATLTVDKSTSTAYMELSSLRSEDTAVYYCARLGHYGNLYAKDYWGQGTLVT
VL: EIVLTQSPATLSLSPGERATLSCSASSSVSYIHWYQQKPGQAPRRWIYDTSKLASGVPARFSGSGSGTDYTLTISSLEPEDFAVYYCQQWSSNPPTFGQGTKLEIK
For B4, the KD improvement in assay [5] is 8.7 fold (Ch2E6 = 1).

B5: 7A10 (antibody, V domains shown)
VH: QVQLVQSGAEVKKPGASVKVSCKASGYTFTSYWMHWMRQAPGQGLEWIGRIDPNSGTTKYNVNFKTRATLTVDKSTSTAYMELSSLRSEDTAVYYCARLGHYGNLYAKDYWGQGTLVT
VL: EIVLTQSPATLSLSPGERATLSCSASSSVSYIHWYQQKPGQAPRRWIYDTSKLASGVPARFSGSGSGTDYTLTISSLEPEDFAVYYCQQWSSNPPTFGQGTKLEIK
notes: also called 2E6_7A10; 2E6-HLD1-7A10
With B5, in assay [5], the KD improvement is 10.3 fold (Ch2E6 = 1), the Ka stood at 1.81e+08 M⁻¹, binding was put at a Kd of 5.52 nM and the koff turned out to be 0.000285 s⁻¹. The same molecule showed a kon in assay [5] of 51700 M⁻¹ s⁻¹.

B6: HDL1-3 (antibody, V domains shown)
VH: QVQLVQSGAEVKKPGASVKVSCKASGYTFTSYWMHWMRQAPGQGLEWIGRIDPNSGTTKYNVNIKTRATLTVDKSTSTAYMELSSLRSEDTAVYYCARLGHYGNLYAMDYWGQGTLVT
VL: EIVLTQSPATLSLSPGERATLSCSASSSVSYIHWYQQKPGQAPRRWIYDTSKLASGVPARFSGSGSGTDYTLTISSLEPEDFAVYYCQQWSSNPPTFGQGTKLEIK
notes: also called combination 3: 7A10 light chain+9C12 heavy chain
Take B6: in assay [6], the KD improvement was 45 fold (Ch2E6 = 1), the Ka worked out at 7.94e+08 M⁻¹, the Kd stood at 1.26 nM and the koff is 0.000126 s⁻¹. Further, the on-rate constant (kon) in assay [6] worked out at 99900 M⁻¹ s⁻¹.

B7: 7C4 (antibody, V domains shown)
VH: QVQLVQSGAEVKKPGASVKVSCKASGYTFTRYWMHWMRQAPGQGPEWIGRIDPNSGTTKYNVNFKTRATLTVDKSTSTAYMELSSLRSEDTAVYYCARLGHYGNLYAMDYWGQGTLVT
VL: EIVLTQSPATLSLSPGERATLSCSASSSVSFMHWYQQKPGQAPRRWIYDTSKLASGVPARFSGSGSGTDYTLTISSLEPEDFAVYYCQQWSSNPPTFGQGTKLEIK
In the case of B7, the KD improvement in assay [5] was 7 fold (Ch2E6 = 1).

B8: 2E6-HLD-3 (antibody, V domains shown)
VH: QVQLVQSGAEVKKPGASVKVSCKASGYTFTSYWMHWMRQAPGQGLEWIGRIDPNSGTTKYNVNFKTRVTLTVDKSTSTAYMELSSLRSEDTAVYYCARLGHYGNLYAMDYWGQGTLVT
VL: EIVLTQSPATLSLSPGERATLSCSASSSVSYMHWYQQKPGQAPRRWIYDTSKLASGVPARFSGSGSGTDYTLTISSLEPEDFAVYYCQQWSSNPPTFGQGTKLEIKR
notes: Humanized 2E6; also called h2E6-HLD-3; H2E6-HLD-3
Turning to B8, in assay [4], the KD improvement was 1 fold (Ch2E6 = 1) and the Kd came out at 5.32 nM.

B9: 2E6-HLD-2 (antibody, V domains shown)
VH: QVQLVQSGAEVKKPGASVKVSCKASGYTFTSYWMHWVRQAPGQGLEWIGRIDPNSGTTKYNVNFKTRATLTVDKSTSTAYMELSSLRSEDTAVYYCARLGHYGNLYAMDYWGQGTLVT
VL: EIVLTQSPATLSLSPGERATLSCSASSSVSYMHWYQQKPGQAPRRWIYDTSKLASGVPARFSGSGSGTDYTLTISSLEPEDFAVYYCQQWSSNPPTFGQGTKLEIKR
notes: Humanized 2E6; also called h2E6-HLD-2; H2E6-HLD-2
Consider B9, for which the KD improvement in assay [4] is 1 fold (Ch2E6 = 1).

B10: 9C12 (antibody, V domains shown)
VH: QVQLVQSGAEVKKPGASVKVSCKASGYTFTSYWMHWMRQAPGQGLEWIGRIDPNSGTTKYNVNIKTRATLTVDKSTSTAYMELSSLRSEDTAVYYCARLGHYGNLYAMDYWGQGTLVT
VL: EIVLTQSPATLSLSPGERATLSCSASSSVSYMHWYQQKPGQAPRRLIYDTSKLASGVPARFSGSGSGTDYTLTISSLEPEDFAVYYCQQWSSNPPTFGQGTKLEIK
Take B10: the KD improvement in assay [5] is 10 fold (Ch2E6 = 1).

By Kd is commonly meant a measure of binding affinity in units of concentration. A high value points to lower affinity. What is called koff is the first-order rate constant of dissociation. A low value points to a long-lived complex. For orientation: kon means a measure of how fast the partners come together. Higher therefore signals faster complex formation.
